Reference: patent US20250075002A1

Molecular target: Human MUC1 (full length), on cells (human) (UniProt P15941)
Experiment: cell-based or functional assay

Human MUC1 (full length), on cells (human), sequence (P15941 24-1255 limits assumed): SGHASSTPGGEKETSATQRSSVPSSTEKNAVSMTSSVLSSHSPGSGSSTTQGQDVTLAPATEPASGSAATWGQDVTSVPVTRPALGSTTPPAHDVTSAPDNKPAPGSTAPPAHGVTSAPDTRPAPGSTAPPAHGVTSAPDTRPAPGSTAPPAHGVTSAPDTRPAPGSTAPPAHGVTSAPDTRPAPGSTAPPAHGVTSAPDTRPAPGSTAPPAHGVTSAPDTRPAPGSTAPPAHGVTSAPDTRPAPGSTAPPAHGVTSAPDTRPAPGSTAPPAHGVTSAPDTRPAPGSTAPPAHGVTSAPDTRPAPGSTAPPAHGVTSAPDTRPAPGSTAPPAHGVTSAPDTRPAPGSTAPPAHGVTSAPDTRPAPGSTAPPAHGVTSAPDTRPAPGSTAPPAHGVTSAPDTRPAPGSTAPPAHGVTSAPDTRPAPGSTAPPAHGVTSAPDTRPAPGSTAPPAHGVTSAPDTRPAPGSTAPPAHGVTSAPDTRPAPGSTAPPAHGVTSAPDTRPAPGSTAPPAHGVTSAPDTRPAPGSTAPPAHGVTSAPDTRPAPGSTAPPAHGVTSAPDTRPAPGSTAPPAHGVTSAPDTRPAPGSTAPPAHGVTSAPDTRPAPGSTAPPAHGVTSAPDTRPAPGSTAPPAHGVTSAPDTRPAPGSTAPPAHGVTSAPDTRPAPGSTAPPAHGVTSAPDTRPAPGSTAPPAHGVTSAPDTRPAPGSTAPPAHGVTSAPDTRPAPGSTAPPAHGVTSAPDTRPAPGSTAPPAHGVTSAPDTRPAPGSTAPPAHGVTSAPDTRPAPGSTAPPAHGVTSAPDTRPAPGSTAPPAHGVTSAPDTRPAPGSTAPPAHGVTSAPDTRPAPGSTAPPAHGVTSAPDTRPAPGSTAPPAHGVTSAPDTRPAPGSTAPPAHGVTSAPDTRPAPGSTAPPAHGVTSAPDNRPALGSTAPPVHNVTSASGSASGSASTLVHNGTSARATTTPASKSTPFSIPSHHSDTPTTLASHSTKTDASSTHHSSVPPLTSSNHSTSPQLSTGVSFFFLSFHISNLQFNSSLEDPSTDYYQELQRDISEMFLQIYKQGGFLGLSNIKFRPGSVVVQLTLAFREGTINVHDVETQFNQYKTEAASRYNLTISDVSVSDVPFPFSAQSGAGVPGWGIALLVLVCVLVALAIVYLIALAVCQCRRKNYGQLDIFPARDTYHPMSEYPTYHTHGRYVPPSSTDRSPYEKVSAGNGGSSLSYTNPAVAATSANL

B1: huBG219P-E39-AF (antibody, human IgG1, V domains shown)
VH: EVQLLESGGGLVQPGGSLRLSCAASGFTFNDYIMSWVRQAPGKGLEWVATVSSGGDNTYYPDSVKGRFTISRDNSKNTLYLQMNSLRAEDTAVYYCTRYGGLGAMDYWGQGTLVTVSS
VL: DIQMTQSPSSLSASVGDRVTITCRASGNIHNYLTWYQQKPGKAPKLLIYNAKTLASGVPSRFSGSGSGTDFTLTISSLQPEDFATYYCQHFWSVPYTFGQGTKLEIK
modifications: afucosylated Fc glycan (-AF; expressed with 2F-peracetyl-fucose)
ADCC EC50, HCC827 (MUC1 medium), NK92mi/CD16A F158 effectors, w/o huIgG: 11.5 nM
ADCC EC50, T-47D (MUC1 high), NK92mi/CD16A F158 effectors, w/o huIgG: 1.3 nM
ADCC EC50, T-47D (MUC1 high), NK92mi/CD16A V158 effectors, w/o huIgG: 0.603 nM
ADCC Emax, H358 (MUC1 low), NK92mi/CD16A F158 effectors, 10 mg/ml huIgG1: 10.7%
ADCC Emax, H358 (MUC1 low), NK92mi/CD16A F158 effectors, w/o huIgG: 10.2%
ADCC Emax, H358 (MUC1 low), NK92mi/CD16A V158 effectors, 10 mg/ml huIgG1: 15.5%
ADCC Emax, H358 (MUC1 low), NK92mi/CD16A V158 effectors, w/o huIgG: 15.6%
ADCC Emax, HCC827 (MUC1 medium), NK92mi/CD16A F158 effectors, 10 mg/ml huIgG1: 31%
ADCC Emax, HCC827 (MUC1 medium), NK92mi/CD16A F158 effectors, w/o huIgG: 36.8%
ADCC Emax, HCC827 (MUC1 medium), NK92mi/CD16A V158 effectors, 10 mg/ml huIgG1: 26.7%
ADCC Emax, HCC827 (MUC1 medium), NK92mi/CD16A V158 effectors, w/o huIgG: 25%
ADCC Emax, T-47D (MUC1 high), NK92mi/CD16A F158 effectors, 10 mg/ml huIgG1: 25.7%
ADCC Emax, T-47D (MUC1 high), NK92mi/CD16A F158 effectors, w/o huIgG: 48.2%
ADCC Emax, T-47D (MUC1 high), NK92mi/CD16A V158 effectors, 10 mg/ml huIgG1: 19.2%
ADCC Emax, T-47D (MUC1 high), NK92mi/CD16A V158 effectors, w/o huIgG: 33.6%
Cell lysis activity EC50, T-47D (MUC1 high) in human whole blood: 1.25 nM
Cell lysis activity Emax, H358 (MUC1 low) in human whole blood: 8.6%
Cell lysis activity Emax, HCC827 (MUC1 medium) in human whole blood: 14.1%
Cell lysis activity Emax, T-47D (MUC1 high) in human whole blood: 20.2%
Phagocytosis (ADCP) EC50, T-47D, human M2 macrophages, w/o huIgG: 0.05 nM
Phagocytosis (ADCP) Emax, T-47D, human M2 macrophages, 10 mg/ml huIgG1: 17.6%
Phagocytosis (ADCP) Emax, T-47D, human M2 macrophages, w/o huIgG: 56.4%

B2: MUC1 5F3-hFc-AF (antibody, V domains shown)
VH: DVQVQESGPDLVKPSQSLSLTCTVTGHSITRGSSWHWIRQFPGNKLEWMGYIHYGGGTSYNPSLKSRISITRDTSKNQFFLQLNSVTTEDTATFFCARYSYDITYRWFFDVWGAGTTVIVSS
VL: DILLTQSPAILSVSPGERVSFSCRASQNIGTSIHWYQQRKNGSPRLLIKYASESISGIPSRFSGSGSGTDFTLSINSVESEDMADYYCQQNNNWPLTFGAGTKLELK
Cell lysis activity EC50, T-47D/nanoluc in human whole blood: 0.464 nM
Cell lysis activity Emax, T-47D/nanoluc in human whole blood: 7.78%
